Experimental findings from the supplement of paper PMC9170038 are described below.

This series deals with K4 kissing-loop RNA reporter. Kind of series: apparent KD of K4 kissing-loop reporter; higher = weaker reporter binding. Conditions: Eterna round: R107. On the procedure:
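RNA-MaP round R107: designed RNA switches with theophylline, tryptophan, arginine or FMN aptamers are transcribed on-chip within common flanks. They are titrated with a labelled K4 kissing-loop RNA reporter in RNA-MaP buffer (100 mM Tris pH 7.5, 80 mM KCl, 4 mM MgCl2), without ligand or with the indicated ligand. Median apparent KD per design.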

The mark [1] stands for this setting: input ligand: theophylline 20 uM.
Setting [2] is: input ligand: tryptophan 2.4 mM.
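Also: bound reporter read as fluorescence of individual clusters on recovered sequencing chips by microscopy, with normalized cluster intensities fitted with a binding model.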

In the case of “AGAGGAAAUAGAAGGAGCGGCGCCAGUGAUGUUGGAUGCCGCGGGUGAAUCAGGUCAUAGUGCCAGGUAGGUCGCUAUUUCAGCG [Larebeve]”, the “apparent KD of K4 kissing-loop reporter” value reads like this: (input ligand: FMN 200 uM) 0.177 µM; (input ligand: arginine 13.2 mM) 0.112 µM; (input ligand: none) 0.141 µM; under setting [1], 0.161 µM; under setting [2], 0.138 µM.

Consider “GCCAGGCAUCUGCAGAGUGAUGUUCAAAAGCGAGGACCGGUACGGCCGCCACUCGAAAGCAGAUGCCUGGGCGUACAAAGUACGC [idea]”, for which the “apparent KD of K4 kissing-loop reporter” value (input ligand: FMN 200 uM) was determined as 1.14 µM; the “apparent KD of K4 kissing-loop reporter” value (input ligand: arginine 13.2 mM) was 0.262 µM; the “apparent KD of K4 kissing-loop reporter” value (input ligand: none) is 0.984 µM; the “apparent KD of K4 kissing-loop reporter” value under setting [1] is 0.562 µM; the “apparent KD of K4 kissing-loop reporter” value under setting [2] turned out to be 0.899 µM.

With “GUAUGUGGAAACACGUACUUGUAUCCUAAGCAGGAUAUGCGGAAACGCAGAAGGGCUACCAGCGAGUUUAUCCAGUGAUGUUGGA [Ex FMN A 12]”, the “apparent KD of K4 kissing-loop reporter” value reads like this: (input ligand: FMN 200 uM) 0.289 µM; (input ligand: arginine 13.2 mM) 0.235 µM; (input ligand: none) 0.269 µM; under setting [1], 0.264 µM; under setting [2], 0.288 µM.

Take “AAUUAAUGUAUAGAUUAUAUACAUUAAUCAGAGGAUAUGCUUUGUUGCAGAAGGCUGAAUGCAGUGAUGUUGCAAUUUUAAUUUA [JR_SSFMNA_Sub005]”: the “apparent KD of K4 kissing-loop reporter” value reads like this: (input ligand: FMN 200 uM) 0.0508 µM; (input ligand: arginine 13.2 mM) 0.0998 µM; (input ligand: none) 0.0547 µM; under setting [1], 0.0873 µM; under setting [2], 0.0467 µM.

Regarding “UCUGGUAUAUCUGAUACCAGAGAAUAGAAUCAAUUGAAUAUGGAGUGAUGUUCCAUAAAACUCCCUUGGCAGCAGAUAAUCAUAU [Same State Theophylline B GF 22]”, the “apparent KD of K4 kissing-loop reporter” value is 0.113 µM (input ligand: FMN 200 uM); 0.167 µM (input ligand: arginine 13.2 mM); 0.125 µM (input ligand: none); 0.172 µM under setting [1]; 0.112 µM under setting [2].

As to “AGAACUGUCUUGGAUACCAGUGAUGUUGGUAUCUGUGUGUGAGUGCAAAGCGUCCCACAUUGCCCUUGGCAGCUAAGACUGUUCA [Omei KL Theo B Exc A v1]”, the “apparent KD of K4 kissing-loop reporter” value is, setting by setting: (input ligand: FMN 200 uM) 0.147 µM; (input ligand: arginine 13.2 mM) 0.129 µM; (input ligand: none) 0.137 µM; under setting [1], 0.182 µM; under setting [2], 0.132 µM.

Regarding “ACGUAGUACGUAGGAUAUCAGAGAUCAGUUAGUGAGAUCGAGUGAUGUUCGAUCAAGUGUUCAUUUUGAGAAGGAUGUAGUAGGA [KL-SSFMN-B7]”, the “apparent KD of K4 kissing-loop reporter” value by setting is: (input ligand: FMN 200 uM) 0.263 µM; (input ligand: arginine 13.2 mM) 0.32 µM; (input ligand: none) 0.387 µM; under setting [1], 0.428 µM; under setting [2], 0.238 µM.

“GAGGGCUCGGGAGGAUAUGAGUCUAGUGAUGUUAGGCGGUCCAUGCGCGUGGCGCGUUAUGCCCUUUUAGAAGGCCCGAGCCCGC [#2 Exclusion - FMN B Attempt #23 (HarryS)]”: the “apparent KD of K4 kissing-loop reporter” value (input ligand: FMN 200 uM) is 0.109 µM; the “apparent KD of K4 kissing-loop reporter” value (input ligand: arginine 13.2 mM) is 0.0764 µM; the “apparent KD of K4 kissing-loop reporter” value (input ligand: none) came out at 0.0906 µM; the “apparent KD of K4 kissing-loop reporter” value under setting [1] was found to be 0.0833 µM; the “apparent KD of K4 kissing-loop reporter” value under setting [2] is 0.0938 µM.

Take “AGACCUCAGUGAUGUUGAGGUAACGCUGAUACCAGUGACUUAAUUCACCCUUGGCAGCAGUCCACCAAGGUAUCUGAUUAGGUCU [Theo A Ex t5]”: the “apparent KD of K4 kissing-loop reporter” value reads like this: (input ligand: FMN 200 uM) 0.153 µM; (input ligand: arginine 13.2 mM) 0.163 µM; (input ligand: none) 0.133 µM; under setting [1], 0.144 µM; under setting [2], 0.138 µM.

In the case of “AAGGUAUCACCACAACAUCACUAAGGUGAUACCAGCAUCGAAAGAUGCCCUUGGCAGCACCAACUUGCAGUGAUGUUGCAAGUAA [(T)'-(H)'-(T1)-(T2)-(H1)-(H2)_Design9]”, the “apparent KD of K4 kissing-loop reporter” value by setting is: (input ligand: FMN 200 uM) 0.417 µM; (input ligand: arginine 13.2 mM) 0.31 µM; (input ligand: none) 0.365 µM; under setting [1], 0.438 µM; under setting [2], 0.366 µM.

Consider “GAAUUAUGUAGAAGGAGCGUUAGAAGGUAUAGGUGUGAGUGAUGUUCGGAUUUGUUAAUUUGACAGGUAGGUCGCUACAGAAGGA [KL-SSArg B17 #analogue]”, for which the “apparent KD of K4 kissing-loop reporter” value runs as follows: (input ligand: FMN 200 uM) 0.435 µM; (input ligand: arginine 13.2 mM) 0.267 µM; (input ligand: none) 0.242 µM; under setting [1], 0.132 µM; under setting [2], 0.106 µM.

Regarding “AUCCGAGAAUAUGAUACCAGCUGAGUGUAUCAAGACCGUAUCUCCCGUGCUAGUGAUGUUAGCCCUUGGCAGCAUAUGAAAGCGG [theeternabot_exclusion_KL_Theo_B_15]”, the “apparent KD of K4 kissing-loop reporter” value by setting is: (input ligand: FMN 200 uM) 0.635 µM; (input ligand: arginine 13.2 mM) 0.518 µM; (input ligand: none) 0.467 µM; under setting [1], 0.517 µM; under setting [2], 0.57 µM.

For the sequence “CAUGGACUUCCAGUGUAUCCAUGACUGGAUACCAGUCAGGAAACUGACCCUUGGCAGCCAGAACUGGAAGUGAUGUUUCCAGUAA [Design8]”, the “apparent KD of K4 kissing-loop reporter” value runs as follows: (input ligand: FMN 200 uM) 0.227 µM; (input ligand: arginine 13.2 mM) 0.214 µM; (input ligand: none) 0.244 µM; under setting [1], 0.244 µM; under setting [2], 0.24 µM.

On to “UAUGAAUGUGGAGGAUAUUGAUUGAAUCUUGGUCUGGAGUGAUGUUCCGGGAAGCCUUGGAUUCAUCGAGAAGGCCAUGGAUAGU [#03 K4 FMN B Same State]”, for which the “apparent KD of K4 kissing-loop reporter” value is, setting by setting: (input ligand: FMN 200 uM) 0.111 µM; (input ligand: arginine 13.2 mM) 0.111 µM; (input ligand: none) 0.118 µM; under setting [1], 0.109 µM; under setting [2], 0.0959 µM.

On to “GAUAUAGUGAUGUUAUAUAGGAAGGAGUUACGAGGACCGGUACGGCCGCCACUCGAAACGAGUGAUGAUUUGGGAGAUUGGGUUG [SSTryptA.P]”, for which the “apparent KD of K4 kissing-loop reporter” value is, setting by setting: (input ligand: FMN 200 uM) 0.364 µM; (input ligand: arginine 13.2 mM) 0.359 µM; (input ligand: none) 0.395 µM; under setting [1], 0.43 µM; under setting [2], 0.332 µM.

As for “CCAGGACGAUGAGGAGGAUGAAUUACUGAAGGAGCGCAUAUGGUUGCAGGUAGGUCGCGGUGAACAAGUAUAGUGAUGUUAUACC [SSArgA.T]”, the “apparent KD of K4 kissing-loop reporter” value (input ligand: FMN 200 uM) stood at 0.339 µM; the “apparent KD of K4 kissing-loop reporter” value (input ligand: arginine 13.2 mM) is 0.29 µM; the “apparent KD of K4 kissing-loop reporter” value (input ligand: none) was 0.368 µM; the “apparent KD of K4 kissing-loop reporter” value under setting [1] is 0.343 µM; the “apparent KD of K4 kissing-loop reporter” value under setting [2] turned out to be 0.445 µM.

Take “GAAUUAUGUAGAAGGAGCGUUAGAAGGUAUAGGUGCGAGUGAUGUUUGGACUUGUUAAUUUGACAGGUAGGUCGCUACAGAAGGA [KL-SSArg B19 #analogue]”: the “apparent KD of K4 kissing-loop reporter” value (input ligand: FMN 200 uM) worked out at 0.496 µM; the “apparent KD of K4 kissing-loop reporter” value (input ligand: arginine 13.2 mM) was 0.281 µM; the “apparent KD of K4 kissing-loop reporter” value (input ligand: none) is 0.499 µM; the “apparent KD of K4 kissing-loop reporter” value under setting [1] amounted to 0.379 µM; the “apparent KD of K4 kissing-loop reporter” value under setting [2] stood at 0.451 µM.

For the sequence “UGGACGAAUAUCGAUAAGAUAUUCUGGGAUACCAGUGACGAAAGUCACCCUUGGCAGCUCAACUGCCAGUGAUGUUGGUAGUCCA [Astros-Elo-mod#3]”, the “apparent KD of K4 kissing-loop reporter” value (input ligand: FMN 200 uM) came out at 0.238 µM; the “apparent KD of K4 kissing-loop reporter” value (input ligand: arginine 13.2 mM) was determined as 0.142 µM; the “apparent KD of K4 kissing-loop reporter” value (input ligand: none) was found to be 0.218 µM; the “apparent KD of K4 kissing-loop reporter” value under setting [1] is 0.162 µM; the “apparent KD of K4 kissing-loop reporter” value under setting [2] was determined as 0.165 µM.

In the case of “AAAUUUAAUAUAUUUAAUUAAUUAUGUGAUACCAGACAUUUAUAAGUCCCUUGGCAGCACUUUGCAGUGAUGUUGCUUAUAAUAA [JR_SSTheophyA_Sub014]”, the “apparent KD of K4 kissing-loop reporter” value was 0.0888 µM (input ligand: FMN 200 uM); 0.0971 µM (input ligand: arginine 13.2 mM); 0.0914 µM (input ligand: none); 0.192 µM under setting [1]; 0.0838 µM under setting [2].
